Measurements published in patent US20220332804A1 (CSL INNOVATION, published 2022).
Positions count from the first letter of the chain named.

Experiments:
Experiment in all cases: SPR, antibody captured, C2 as analyte;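 also: biacore at 37 °C, anti-C2 mAbs held by immobilised goat anti-human IgG, C2 alanine or serine mutants injected, double-referenced sensorgrams fitted to a 1:1 kinetic or steady-state model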
human C2 E267A = target: T1, human C2 E267A (human, UniProt P06681 21-752)
T1 sequence: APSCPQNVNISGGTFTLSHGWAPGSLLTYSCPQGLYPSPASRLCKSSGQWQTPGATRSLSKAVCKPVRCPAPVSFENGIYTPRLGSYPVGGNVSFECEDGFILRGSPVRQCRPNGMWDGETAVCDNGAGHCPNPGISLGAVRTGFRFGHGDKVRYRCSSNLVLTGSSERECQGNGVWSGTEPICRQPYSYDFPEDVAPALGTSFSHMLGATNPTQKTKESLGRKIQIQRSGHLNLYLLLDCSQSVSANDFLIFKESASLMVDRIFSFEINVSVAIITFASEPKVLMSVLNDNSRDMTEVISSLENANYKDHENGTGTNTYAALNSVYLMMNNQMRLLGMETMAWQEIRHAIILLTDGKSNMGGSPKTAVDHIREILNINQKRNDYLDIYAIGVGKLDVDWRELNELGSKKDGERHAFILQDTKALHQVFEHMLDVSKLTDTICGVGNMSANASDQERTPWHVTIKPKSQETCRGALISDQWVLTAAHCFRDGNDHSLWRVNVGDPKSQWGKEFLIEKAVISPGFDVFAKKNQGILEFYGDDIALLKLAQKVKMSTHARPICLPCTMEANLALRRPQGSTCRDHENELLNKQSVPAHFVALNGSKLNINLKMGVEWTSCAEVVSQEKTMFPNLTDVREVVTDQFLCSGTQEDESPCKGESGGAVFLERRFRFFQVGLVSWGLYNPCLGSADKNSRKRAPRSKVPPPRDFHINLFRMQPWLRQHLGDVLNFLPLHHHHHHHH

human C2 H435A = target: T2, human C2 H435A (human, UniProt P06681 21-752)
T2 sequence: T1 sequence with A247E, H415A

human C2 Q447A = target: T3, human C2 Q447A (human, UniProt P06681 21-752)
T3 sequence: T1 sequence with A247E, Q427A

human C2 V465A = target: T4, human C2 V465A (human, UniProt P06681 21-752)
T4 sequence: T1 sequence with A247E, V445A

B1: RF16-242 (antibody, human IgG4 S228P, lambda, V domains shown)
VH: EVQLLQSGAEVKKPGESLKISCKGSGYSFTSYWIGWVRQMPGKGLEWMGIIYPGDSDTRYSPSFQGQVTISADKSISTAYLQWSSLKASDTAMYYCARRGHYGDYFDYWGQGTLVTVSS
VL: SYELTQPPSVSVSPGQTARITCSGDALPKKYAYWYHQKSGQAPVLVIYEDRRRPSEIPERFSGSSSGTMATLTITGAQVEDEGVYFCYSRDRAGNQRVFGGGTQLTVLG
notes: pH-dependent anti-C2 antibody from a phage display library
Q: What does the source list for B1?
A: Kd (human C2 E267A): 12.1 nM; Kd (human C2 H435A): 62.5 nM; Kd (human C2 Q447A): 26 nM; Kd (human C2 V465A): 16.3 nM
